According to PMC8444507:

How the values were obtained:
[1] = biological target: SARS-CoV-2 spike receptor-binding domain (S-RBD), wild-type (SARS-CoV-2) (UniProt P0DTC2)
[2] = biological target: SARS-CoV spike receptor-binding domain (S-RBD), wild-type (SARS-CoV) (UniProt P59594)

Question: For “ACE2[W19/Y330]-Fc (from UniProt Q9BYF1 19-615) (Fc fusion)”, which IC50 of entry inhibition, wild-type SARS-CoV-2 pseudovirus on HEK293T-ACE2 cells [1] is on record?
Answer: 0.09 µg/mL

Question: What about the IC50 of entry inhibition, SARS-CoV pseudovirus on HEK293T-ACE2 cells [2] of the same substance?
Answer: 0.34 µg/mL

Question: With “ACE2[W19/W27/Y330]-Fc (from UniProt Q9BYF1 19-615) (Fc fusion)” as the substance, how does the IC50 of entry inhibition, wild-type SARS-CoV-2 pseudovirus on HEK293T-ACE2 cells [1] read?
Answer: 0.53 µg/mL

Question: What about the IC50 of entry inhibition, SARS-CoV pseudovirus on HEK293T-ACE2 cells [2] of the same substance?
Answer: 0.49 µg/mL

Question: What does the source list for “ACE2[W27/Y330]-Fc (from UniProt Q9BYF1 19-615) (Fc fusion)”?
Answer: IC50 of entry inhibition, wild-type SARS-CoV-2 pseudovirus on HEK293T-ACE2 cells [1]: 0.25 µg/mL; IC50 of entry inhibition, SARS-CoV pseudovirus on HEK293T-ACE2 cells [2]: 1.04 µg/mL
